Source: patent US20230398116A1, “Agent for reversing resistance to anticancer drugs” (Y'S AC CO., LTD., priority 2020, published 2023)

T1: IL-26 (Homo sapiens, UniProt Q9NPH9)
T1 sequence (Q9NPH9 22-171): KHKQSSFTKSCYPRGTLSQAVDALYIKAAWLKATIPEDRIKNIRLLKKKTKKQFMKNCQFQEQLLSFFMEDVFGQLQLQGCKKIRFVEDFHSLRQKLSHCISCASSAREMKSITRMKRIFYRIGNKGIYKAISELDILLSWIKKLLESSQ

B1: IL-26: recombinant human IL-26 dimers for cell stimulation, R&D Systems (protein)
chain: T1 sequence (Q9NPH9 22-171)
B2: 69-10: mouse anti-human IL-26 monoclonal antibody, clone 69-10, from deposited hybridoma (antibody, V domains shown)
VH: QVTLKESGPGILKPSQTLSLTCSFSGFSLSTSGMGVGWIRQPSGKGLEWLAHIWWDDDKYYNPSLKSQLTISKDTSRNQVFLKITSVDTADTATYYCVRGGITATHYYAMDYWGQGTSVTVSS
VL: DIQMTQSPASQSASLGESVTISCLASQTIGTWLSWYQQKPGKSPQLLIYAATSLADGVPSRFSGSGSGTKFSFKISSLQAEDFVSYYCQQLYSSPWTFGGGTKLEIK

What was measured:
[1] = system: phosphorylation of AKT, JNK and EphA3 in HCC70 cells; test: Western blotting of phosphorylation in HCC70 cells; assay type: cell-based, human; details: HCC70, IL-26 30 ng/ml or Ephrin A5 200 ng/ml, gefitinib 40 μM, FIG. 26
Protocol: To analyze the phosphorylation of AKT, ERK, p38, JNK, STAT3, and EphA3, E0771 cells and HCC70 cells in 100 mm dishes were stimulated with IL-26 ([…]) and an anti-EphA3 polyclonal antibody (pAb) (10 μg/ml) for a specified period of time. After stimulation, the cells were lysed with a 2% protease inhibitor mixture (Sigma-Aldrich) and/or RIPA buffer added with 1×PhosSTOP (Roche Diagnostics, Tokyo, Japan), and a lysate was separated in a reduced state by SDS-PAGE (15 μg/lane). Immunoblots were performed using an anti-phosphorylated AKT antibody, an anti-phosphorylated ERK antibody, an anti-phosphorylated p38 antibody, an anti-phosphorylated JNK antibody, an anti-phosphorylated STAT3 antibody, and an anti-phosphorylated EphA3 antibody that recognize both human and mouse antigens. For reprobing, the membrane was immersed in a stripping buffer. After the stripping procedure, the membranes were re-probed with anti-pan-AKT, anti-pan-ERK, anti-pan-p38, anti-pan-JNK, anti-pan-STAT3, and anti-pan-EphA3 antibodies recognizing both human and mouse antigens. Images were taken using a C-Digit Blot scanner (MS Techno Systems, Inc., Japan).

IL-26 [2] = target: T1, IL-26; test: MTT assay of HUVECs stimulated with IL-26 (neutralizing activity of IL-26); assay type: cell-based; set-up: purchased R&D Systems; host or cells: added exogenously to HUVECs; details: HUVECs, IL-26 10 ng/mL, 48 hours, MTT assay
Protocol: Human and mouse breast cancer cells (1×10^4) were cultured in 10% FCS containing RPMI1640 medium on a 96-well flat bottom plate (Corning, Tewksbury, MA) at 37° C. for 24 hours, and then stimulated with IL-26 for 48 hours in the presence or absence of EGFR-TKI (gefitinib or erlotinib) at various concentrations, a signal inhibitor, and a neutralizing antibody. HUVECs were seeded in a 96-well flat bottom plate at 5×10^3 cells/well in a 2% FBS-containing EGM medium in which growth factors were reduced by half, and cultured at 37° C. for 12 hours. Thereafter, the medium was aspirated, and a recombinant human IL-26 dimer was adjusted to a final concentration of 10 ng/mL in a 2% FBS-containing EGM medium containing no growth factors, and added to the cells. The stimulation was started in the presence or absence of control human IgG and anti-human IL-26 antibodies, and the cells were cultured for 48 hours. Thereafter, a concentration of 20 μl or 1/10 of a 5 mg/ml MTT solution (Tetrazolium monosodium salt, WST-8) was added to each well, and the plate was allowed to stand for 1 hour. The absorbance at 450 nm/595 nm was measured using Microplate Reader (Bio-Rad, Hercules, CA) and data was analyzed with Microplate Manager 6 software (Bio-Rad).

IL-26 [3] = target: T1, IL-26; test: ICAM-1 expression analysis of COLO205 (neutralizing activity of IL-26); assay type: cell-based; set-up: host or cells: added exogenously to COLO205 cells; details: COLO205, recombinant human IL-26 monomer 20 ng/mL, 24 hours, flow cytometry (MFI)
Protocol: COLO205 was seeded at 5×10^4 cells/well in a 96-well flat bottom plate, and stimulated with recombinant human IL-26 monomer (20 ng/mL) in the presence or absence of control human IgG or anti-human IL-26 antibody. After 24 hours of culture, the cells were collected and washed with ice-cold PBS (FCM buffer) containing 1% FBS and 0.1% sodium azide. Thereafter, a solution prepared by diluting a PE-labeled mouse anti-human ICAM-1 monoclonal antibody (clone 15.2, catalog number 50-0549-T100) of Bay bioscience (Kobe, Japan) or a PE-labeled mouse Igl,k isotype control monoclonal antibody (clone MOPC-21, catalogue number 400114) of BioLegend with FCM buffer to 5 μg/mL, was added at 50 μL/sample, and the mixture was allowed to stand at 4° C. for 25 minutes. Thereafter, the cells were washed with ice-cold FCM buffer, then measured with FACSCalibur, and the obtained data was analyzed with FlowJo.

IL-26 [4] = target: T1, IL-26; test: ELISA of antigen binding to human IL-26; set-up: purchased R&D Systems 1375-IL/CF; details: plates coated with 0.5 μg/ml human IL-26 monomer; calculated using GraphPadPrism
Protocol: The antigen binding of purified Ch69-10-IgG1, Hu69-10A-IgG1, and Hu69-10B-IgG1 was analyzed by ELISA. ELISA plates were coated overnight at 4° C. with the addition of 0.5 μg/ml human IL-26 (recombinant human IL-26/AK155 monomer, Cat #1375-IL/CF, R&D Systems, Minneapolis, MN) at 100 μl/well in 0.2 M sodium carbonate buffer (pH 9.4). Wells were washed with the wash buffer and blocked with the ELISA buffer. Subsequently, 100 μl/well of test antibody (mouse 69-10, Ch69-10-IgG1, Hu69-10A-IgG1, or Hu69-10B-IgG1) serially diluted 2-fold in RPMI medium starting at 5 μg/ml was added to measure a binding with IL-26. After incubation at room temperature for 1 hour and washing the plates with a wash buffer, a 1/2,000-diluted HRP-conjugated goat anti-human kappa chain polyclonal antibody (Bethyl Laboratories) (for Ch69-10-IgG1, Hu69-10A-IgG1 and Hu69-10B-IgG1) or a 1/2,000-diluted HRP-labeled goat anti-mouse kappa chain polyclonal antibody (Bethyl Laboratories) (for mouse 69-10) in ELISA buffer was added at 100 μl/well to detect bound antibodies. After incubation at room temperature for 30 min and washing with the wash buffer, 100 μl/well of ABTS substrate (Sigma Aldrich) was added to start color development and 100 μl/well of 2% oxalic acid was added to stop the color development. The absorbance was measured at 405 nm.

Molecule	dephosphorylation of EphA3, activation of AKT and JNK phosphorylation [1]	inhibitory effect of IL-26 (IL-26-promoted proliferation of HUVECs) (IL-26 [2])	inhibition of IL-26-enhanced expression of ICAM-1 (IL-26 [3])	EC50 values (binding to human IL-26, ELISA) (IL-26 [4]) [µg/mL]
B1	dephosphorylation of EphA3, activation of AKT and JNK phosphorylation			
B2		not inferior to that of the commercially available goat anti-human IL-26 polyclonal antibody	partially inhibited	0.34
